Test system: Arabidopsis thaliana T1 plants
Assay: Topramezone tolerance of transgenic Arabidopsis thaliana T1 plants (pesticide damage grade by bleached leaf area, score, resistance evaluation)
Assay type: in vivo
Conditions: HPPDs from different species, 7 DAT; for Classification and statistics of pesticide damage grade Grade 0 / Classification and statistics of pesticide damage grade Grade 1 / Classification and statistics of pesticide damage grade Grade 2 / Classification and statistics of pesticide damage grade Grade 3: number of plants (of 16) in this grade; for Scores: score for pesticide damage 0-100
Procedure, shortened: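 Eighteen days after sowing, wild-type and HPPD-transgenic T1 Arabidopsis receive a topramezone spray at 1×, 2× or 4× field rate (25–100 g ai/ha) or water. Seven days later each plant is graded by its proportion of bleached leaf area.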

Row | Molecule | Classification and statistics of pesticide damage grade Grade 0 (topramezone 25 g ai/ha (1x)) | Classification and statistics of pesticide damage grade Grade 1 (topramezone 25 g ai/ha (1x)) | Classification and statistics of pesticide damage grade Grade 2 (topramezone 25 g ai/ha (1x)) | Classification and statistics of pesticide damage grade Grade 3 (topramezone 25 g ai/ha (1x)) | Classification and statistics of pesticide damage grade Grade 0 (topramezone 100 g ai/ha (4x)) | Classification and statistics of pesticide damage grade Grade 1 (topramezone 100 g ai/ha (4x)) | Classification and statistics of pesticide damage grade Grade 2 (topramezone 100 g ai/ha (4x)) | Classification and statistics of pesticide damage grade Grade 3 (topramezone 100 g ai/ha (4x)) | Scores (topramezone 25 g ai/ha (1x)) | Scores (topramezone 100 g ai/ha (4x)) | Resistance evaluation (topramezone 25 g ai/ha (1x)) | Resistance evaluation (topramezone 100 g ai/ha (4x))
1 | OsHPPD-02: native Oryza sativa HPPD, SEQ ID NO: 69 (protein, listed as Oryza sativa, OsHPPD Amino Acid Sequence) MPPTPTPTATTGAVSAAAAAGENAGFRLVGHRRFVRANPRSDRFQALAFHHVELWCADAASAAGRFAFALGAPLAARSDLSTGNSAHASLLLRSASVAFLFTAPYGGDHGVGADAATTASIPSFSPGAARRFAADHGLAVHAVALRVADAADAFRASVAAGARPAFQPADLGGGFGLAEVELYGDVVLRFVSHPDGADAPFLPGFEGVSNPGAVDYGLRRFDHVVGNVPELAPVAAYISGFTGFHEFAEFTAEDVGTAESGLNSVVLANNAETVLLPLNEPVHGTKRRSQIQTYLDHHGGPGVQHIALASDDVLGTLREMRARSAMGGFEFLAPPPPNYYDGVRRRAGDVLSEEQINECQELGVLVDRDDQGVLLQIFTKPVGDRPTFFLEMIQRIGCMEKDESGQEYQKGGCGGFGKGNFSELFKSIEEYEKSLEAKQAPTVQGS | 0 | 0 | 0 | 16 | 0 | 0 | 0 | 16 | 100 | 100 | non-resistant (non-resistant plants (scores 68-100)) | non-resistant (non-resistant plants (scores 68-100))
2 | OsHPPDm-F372A-02: Oryza sativa HPPD mutant F372A, SEQ ID NO: 72 (protein, OsHPPDm-F372A Amino Acid Sequence) MPPTPTPTATTGAVSAAAAAGENAGFRLVGHRRFVRANPRSDRFQALAFHHVELWCADAASAAGRFAFALGAPLAARSDLSTGNSAHASLLLRSASVAFLFTAPYGGDHGVGADAATTASIPSFSPGAARRFAADHGLAVHAVALRVADAADAFRASVAAGARPAFQPADLGGGFGLAEVELYGDVVLRFVSHPDGADAPFLPGFEGVSNPGAVDYGLRRFDHVVGNVPELAPVAAYISGFTGFHEFAEFTAEDVGTAESGLNSVVLANNAETVLLPLNEPVHGTKRRSQIQTYLDHHGGPGVQHIALASDDVLGTLREMRARSAMGGFEFLAPPPPNYYDGVRRRAGDVLSEEQINECQELGVLVDRDDQGVLLQIATKPVGDRPTFFLEMIQRIGCMEKDESGQEYQKGGCGGFGKGNFSELFKSIEEYEKSLEAKQAPTVQGS | 8 | 8 | 0 | 0 | 0 | 0 | 0 | 16 | 17 | 100 | moderately resistant (moderately resistant plants (scores 16-33)) | non-resistant (non-resistant plants (scores 68-100))
3 | AtHPPD: native Arabidopsis thaliana HPPD, SEQ ID NO: 23 (protein, listed as Arabidopsis thaliana, Arabidopsis thaliana HPPD Amido Acid Sequence) MGHQNAAVSENQNHDDGAASSPGFKLVGFSKFVRKNPKSDKFKVKRFHHIEFWCGDATNVARRFSWGLGMRFSAKSDLSTGNMVHASYLLTSGDLRFLFTAPYSPSLSAGEIKPTTTASIPSFDHGSCRSFFSSHGLGVRAVAIEVEDAESAFSISVANGAIPSSPPIVLNEAVTIAEVKLYGDVVLRYVSYKAEDTEKSEFLPGFERVEDASSFPLDYGIRRLDHAVGNVPELGPALTYVAGFTGFHQFAEFTADDVGTAESGLNSAVLASNDEMVLLPINEPVHGTKRKSQIQTYLEHNEGAGLQHLALMSEDIFRTLREMRKRSSIGGFDFMPSPPPTYYQNLKKRVGDVLSDDQIKECEELGILVDRDDQGTLLQIFTKPLGDRPTIFIEIIQRVGCMMKDEEGKAYQSGGCGGFGKGNFSELFKSIEEYEKTLEAKQLVG | 0 | 0 | 0 | 16 | 0 | 0 | 0 | 16 | 100 | 100 | non-resistant (non-resistant plants (scores 68-100)) | non-resistant (non-resistant plants (scores 68-100))
4 | AtHPPDm-F372A: Arabidopsis thaliana HPPD mutant F372A, SEQ ID NO: 25 (protein, AtHPPDm-F372A Amino Acid Sequence) MGHQNAAVSENQNHDDGAASSPGFKLVGFSKFVRKNPKSDKFKVKRFHHIEFWCGDATNVARRFSWGLGMRFSAKSDLSTGNMVHASYLLTSGDLRFLFTAPYSPSLSAGEIKPTTTASIPSFDHGSCRSFFSSHGLGVRAVAIEVEDAESAFSISVANGAIPSSPPIVLNEAVTIAEVKLYGDVVLRYVSYKAEDTEKSEFLPGFERVEDASSFPLDYGIRRLDHAVGNVPELGPALTYVAGFTGFHQFAEFTADDVGTAESGLNSAVLASNDEMVLLPINEPVHGTKRKSQIQTYLEHNEGAGLQHLALMSEDIFRTLREMRKRSSIGGFDFMPSPPPTYYQNLKKRVGDVLSDDQIKECEELGILVDRDDQGTLLQIATKPLGDRPTIFIEIIQRVGCMMKDEEGKAYQSGGCGGFGKGNFSELFKSIEEYEKTLEAKQLVG | 4 | 4 | 8 | 0 | 0 | 0 | 4 | 12 | 42 | 92 | poorly resistant (poorly resistant plants (scores 34-67)) | non-resistant (non-resistant plants (scores 68-100))
5 | GsHPPD-02: native Gossypium hirsutum HPPD, SEQ ID NO: 33 (protein, listed as Gossypium hirsutum, GsHPPD Amino Acid Sequence) MVQTNQSGSGNDFKLVGFSNFVRSNPKSDRFTVKRFHHIEFWCTDATNVARRFSWGLGMQFVAKSDLSTGNLTHASYLLRSRDLNFLFTAPYSPSIAVAQNLSPQSTASIPSFDHSLCRSFAATHGLGVRAIAIEVDDAETAFTTSVTHGALPFCPPTPLGDVATIAEVKLYGDVVLRYVSYTTTINSDHDFLPGFEKIEDTLSYPLDYGLRRLDHAVGNVPELGPAVSYVKSFTGFHEFAEFTAEDVGTSESGLNSVVLANNEEMVLLPMNEPVFGTKRKSQIQTYLEHNEGAGVQHLALVSEDIFKTLREMRKRSFVGGFEFMPSPPPTYYKKLKQRAGDILSDEQIKECEELGILVDRDDQGTLLQIFTKPVGDRPTIFIEIIQRIGCMVKDEEGKQYQKGGCGGFGKGNFSELFKSIEEYEKSLEAKQSQNP | 0 | 0 | 0 | 16 | 0 | 0 | 0 | 16 | 100 | 100 | non-resistant (non-resistant plants (scores 68-100)) | non-resistant (non-resistant plants (scores 68-100))
6 | GsHPPDm-F372A-02: Gossypium hirsutum HPPD mutant F372A, SEQ ID NO: 36 (protein, GsHPPDm-F372A Amino Acid Sequence) MVQTNQSGSGNDFKLVGFSNFVRSNPKSDRFTVKRFHHIEFWCTDATNVARRFSWGLGMQFVAKSDLSTGNLTHASYLLRSRDLNFLFTAPYSPSIAVAQNLSPQSTASIPSFDHSLCRSFAATHGLGVRAIAIEVDDAETAFTTSVTHGALPFCPPTPLGDVATIAEVKLYGDVVLRYVSYTTTINSDHDFLPGFEKIEDTLSYPLDYGLRRLDHAVGNVPELGPAVSYVKSFTGFHEFAEFTAEDVGTSESGLNSVVLANNEEMVLLPMNEPVFGTKRKSQIQTYLEHNEGAGVQHLALVSEDIFKTLREMRKRSFVGGFEFMPSPPPTYYKKLKQRAGDILSDEQIKECEELGILVDRDDQGTLLQIATKPVGDRPTIFIEIIQRIGCMVKDEEGKQYQKGGCGGFGKGNFSELFKSIEEYEKSLEAKQSQNP | 16 | 0 | 0 | 0 | 0 | 0 | 0 | 16 | 0 | 100 | highly resistant (highly resistant plants (scores 0-15)) | non-resistant (non-resistant plants (scores 68-100))
